For assay [1], the target named is H7N9病毒的血凝素HA (H7N9 influenza virus). Briefly: ELISA of 293F transfection supernatant (well B, supernatant).
For assay [2] the target is unchanged. Briefly: ELISA of 293F transfection supernatant (well C, supernatant).
Assay [3] shares this target. Briefly: ELISA of 293F transfection supernatant (well A, supernatant).

B1: 抗H7N9全人源单克隆抗体8E17 (antibody, V domains shown)
VH: QVQLVESGGGVVQPGRSLRLSCAASGFIFSNYGMHWVRQAPGRGLEWVAVIWSDGTTTYYADSFKGRFTISSDNSKNTVYLQMNSLRADDSAIYYCARGDLDVVQVAAVTKLWDYWGQGTLVTVSS
VL: QSVLTQPPSASGSLGRSVTISCTGTSSDVGGYNYVSWYQQHPGKVPKLLVYEVTKRPSGVPDRFSGSKSGNTASLTVSGLQAEDEADYYCSSYAVSNNFVFGTGTKLTVTV
In the case of B1, the absorbance at 450 nm (450) was determined as 3.12 OD450 in assay [1], 2.96 OD450 in assay [2] and 3 OD450 in assay [3].

Source of the values: patent CN109957012A.
